Molecular target: T1, hex-ΔN61-NS3 (cc-hex fused NS3) (Human norovirus GI, UniProt Q83883 460-761)
T1 sequence: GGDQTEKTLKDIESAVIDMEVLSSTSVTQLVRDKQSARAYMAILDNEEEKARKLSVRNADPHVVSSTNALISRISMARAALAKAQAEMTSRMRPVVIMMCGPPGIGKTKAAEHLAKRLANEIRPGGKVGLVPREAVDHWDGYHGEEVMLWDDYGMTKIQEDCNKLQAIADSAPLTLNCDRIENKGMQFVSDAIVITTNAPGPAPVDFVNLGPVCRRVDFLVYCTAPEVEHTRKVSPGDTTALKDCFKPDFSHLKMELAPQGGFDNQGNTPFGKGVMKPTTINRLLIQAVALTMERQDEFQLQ
Assay: EMSA; 20 µM protein, 0.2 nM RNA, 5 mM Mg2+; EMSA: 25 mM HEPES pH 8.0, 30 mM NaCl, 5 mM MgCl2, 2 mM DTT, RNasin, 5% glycerol, 37 °C 1 h, 6% native PAGE; tweezers buffer not in material
Conditions: protein: recombinant; tags: N-terminal 32-residue cc-hex replaces residues 1-61; chain copies: 6; label: 5' HEX; single strand, 42 nt

**Q.** Does CAUUAUCGGAUAGUGGAACCUAGCUUCGACUAUCGGAUAAUC (ssRNA) [RNA1] bind?
**A.** binds

Reference: article PMC13683342, “Integrative structure of norovirus NS3 suggests a role in RNA transport”
